The source of these data is article doi:10.1101/2024.12.16.628640.

The target in assay [1] is D-glucose isomerase (D-xylose isomerase, XylA) of Xanthomonas campestris, His-tagged (Xanthomonas campestris). The assay can be described thus: SEC.
In assay [2] the target is D-glucose isomerase (XylA) of Xanthomonas campestris with the exchange W147S, His-tagged (Xanthomonas campestris). The assay can be described thus: SEC. For orientation: SEC sorts molecules by how far they enter the pores of the column.

For orientation: stoichiometry N means a count of units in the complex or per binding partner.

With “D-glucose isomerase (D-xylose isomerase, XylA) of Xanthomonas campestris, His-tagged (enzyme)”, the stoichiometry N in assay [1] is 2.

“D-glucose isomerase (XylA) of Xanthomonas campestris with the exchange W147S, His-tagged (enzyme)” had a stoichiometry N in assay [2] of 2.
